Source: publication PMC3532599, “Structural and Functional Integration of the PLCγ Interaction Domains Critical for Regulatory Mechanisms and Signaling Deregulation” (Structure(London, England:1993), 2012)
Positions count from the first letter of the chain named. Names may count otherwise. One block for each molecule: values may come before it.

Key:
[1] = molecular target: PLCγ1 PLC-core (residues 13−1215, Δ488–933, H335A) (human) (UniProt P19174); test: ITC; cSH2 domain in the syringe, PLC-core in the cell
FGFR1 kinase domain = FGFR1 kinase domain (UniProt P11362); test: ITC, two-site fit; details: reference: nonphosphorylated wild-type nSH2-cSH2; sites Y783
[2] = molecular target: T1, PLCγ1 cSH2 domain, wild type (human); test: NMR titration; 15N-labelled spPH, nSH2 or cSH2 domain observed by 1H-15N HSQC, unlabelled PLC-core (H335A) added up to 1:1; 25°C; for cSH2 then the phosphopeptide NPGFpYVEANPMP to 1:1:1
T1 sequence (P19174 whole entry, looked up): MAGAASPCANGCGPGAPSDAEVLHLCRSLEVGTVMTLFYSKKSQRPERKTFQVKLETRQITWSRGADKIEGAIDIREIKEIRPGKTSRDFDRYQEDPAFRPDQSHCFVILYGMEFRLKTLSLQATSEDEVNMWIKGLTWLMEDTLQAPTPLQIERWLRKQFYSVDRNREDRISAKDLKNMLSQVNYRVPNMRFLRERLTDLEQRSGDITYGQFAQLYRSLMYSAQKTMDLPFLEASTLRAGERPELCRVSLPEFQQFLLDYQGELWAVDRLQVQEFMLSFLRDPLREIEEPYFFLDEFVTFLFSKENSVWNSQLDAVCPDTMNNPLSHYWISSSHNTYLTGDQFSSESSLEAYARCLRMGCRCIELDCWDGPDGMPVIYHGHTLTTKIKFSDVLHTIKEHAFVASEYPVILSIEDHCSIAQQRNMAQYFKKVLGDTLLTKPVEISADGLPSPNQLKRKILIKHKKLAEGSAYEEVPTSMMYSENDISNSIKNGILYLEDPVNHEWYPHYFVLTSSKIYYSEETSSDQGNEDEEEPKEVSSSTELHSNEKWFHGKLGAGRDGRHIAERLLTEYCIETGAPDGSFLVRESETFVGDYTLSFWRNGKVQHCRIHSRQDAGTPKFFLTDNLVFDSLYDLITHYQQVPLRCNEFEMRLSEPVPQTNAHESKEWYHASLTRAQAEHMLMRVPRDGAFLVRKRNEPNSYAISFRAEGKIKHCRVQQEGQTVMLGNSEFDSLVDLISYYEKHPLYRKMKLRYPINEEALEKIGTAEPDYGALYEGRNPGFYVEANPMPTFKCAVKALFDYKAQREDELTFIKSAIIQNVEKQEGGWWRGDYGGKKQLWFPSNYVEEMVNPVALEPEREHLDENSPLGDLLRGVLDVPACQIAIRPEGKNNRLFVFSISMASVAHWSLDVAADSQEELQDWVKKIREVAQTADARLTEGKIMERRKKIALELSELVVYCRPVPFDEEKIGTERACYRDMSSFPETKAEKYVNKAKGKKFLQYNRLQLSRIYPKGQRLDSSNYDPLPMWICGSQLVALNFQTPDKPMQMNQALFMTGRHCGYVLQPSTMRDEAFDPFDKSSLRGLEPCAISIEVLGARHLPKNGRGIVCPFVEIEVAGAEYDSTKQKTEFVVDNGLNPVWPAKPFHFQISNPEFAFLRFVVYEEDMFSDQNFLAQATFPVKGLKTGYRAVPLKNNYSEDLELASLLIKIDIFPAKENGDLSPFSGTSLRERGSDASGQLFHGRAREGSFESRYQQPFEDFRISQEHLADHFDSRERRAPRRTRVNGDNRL

[3] = molecular target: PLCγ1 specific array of domains (γSA), wild type (human); test: ITC; FGFR1-1p in the syringe, PLCγ1 construct in the cell; corrected for heat of dilution; fit to a two-site model (nSH2-cSH2 constructs) or a one-site model (γSA)
[4] = molecular target: T2, PLCγ1 tandem nSH2-cSH2 domains, wild type (human, UniProt P19174 545-790); test: as above; details: both partners purified
T2 construct: PLCγ1 (phospholipase C gamma 1), tandem nSH2 and cSH2 domains with part of the cSH2-SH3 linker; residue numbering is for human PLCγ1; also called nSH2-cSH2^wt; nSH2cSH2^WT
T2 sequence: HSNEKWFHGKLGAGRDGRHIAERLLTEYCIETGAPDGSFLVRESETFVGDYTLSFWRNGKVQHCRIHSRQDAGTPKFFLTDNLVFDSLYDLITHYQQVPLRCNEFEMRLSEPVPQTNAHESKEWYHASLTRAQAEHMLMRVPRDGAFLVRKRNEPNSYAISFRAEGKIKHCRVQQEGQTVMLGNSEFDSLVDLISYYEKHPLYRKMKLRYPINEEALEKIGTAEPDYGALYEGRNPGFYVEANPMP

[5] = molecular target: T3, PLCγ1 nSH2-cSH2 Y771F,Y775F (545–790) phosphorylated on Y783 (human, UniProt P19174 545-790, Y771F | Y775F, phosphotyrosine at 783); test: as above; details: both partners purified
T3 construct: PLCγ1, tandem nSH2-cSH2 with the cSH2-SH3 linker, residues 545-790; residue numbering is for human PLCγ1; also called nSH2-cSH2^Y771F,Y775F,pY783; nSH2cSH2^pY783
T3 sequence (looked up): T2 sequence with Y227F, Y231F

Kd [1]: 49.5 µM
dH [1]: -1.43 kcal/mol
stoichiometry N [1]: 1.17
Molecule: PLCγ1 cSH2 domain N728D (domain or fragment)

Kd [1]: 61.3 µM
dH [1]: -1.45 kcal/mol
stoichiometry N [1]: 1
Molecule: PLCγ1 cSH2 domain S729Y (domain or fragment)

Kd [1]: 23.9 µM
dH [1]: 0.587 kcal/mol
stoichiometry N [1]: 1.14
Molecule: PLCγ1 cSH2 domain, wild type (domain or fragment)

KD (FGFR1 kinase domain): weaker; reference 0.005 ± 0.001
Molecule: PLCγ1 nSH2-cSH2 tandem, 545-790 (from UniProt P19174) nSH2-cSH2 Y771F,Y775F phosphorylated at Y783

Kd [2]: 25 µM
B1: PLCγ1 PLC-core (residues 13−1215, Δ488–933, H335A) (domain or fragment)
chain: GPGAPSDAEVLHLCRSLEVGTVMTLFYSKKSQRPERKTFQVKLETRQITWSRGADKIEGAIDIREIKEIRPGKTSRDFDRYQEDPAFRPDQSHCFVILYGMEFRLKTLSLQATSEDEVNMWIKGLTWLMEDTLQAPTPLQIERWLRKQFYSVDRNREDRISAKDLKNMLSQVNYRVPNMRFLRERLTDLEQRSGDITYGQFAQLYRSLMYSAQKTMDLPFLEASTLRAGERPELCRVSLPEFQQFLLDYQGELWAVDRLQVQEFMLSFLRDPLREIEEPYFFLDEFVTFLFSKENSVWNSQLDAVCPDTMNNPLSHYWISSSANTYLTGDQFSSESSLEAYARCLRMGCRCIELDCWDGPDGMPVIYHGHTLTTKIKFSDVLHTIKEHAFVASEYPVILSIEDHCSIAQQRNMAQYFKKVLGDTLLTKPVEISADGLPSPNQLKRKILIKHKKLAEGSAYEEVPTSMMYSENDISDARLTEGKIMERRKKIALELSELVVYCRPVPFDEEKIGTERACYRDMSSFPETKAEKYVNKAKGKKFLQYNRLQLSRIYPKGQRLDSSNYDPLPMWICGSQLVALNFQTPDKPMQMNQALFMTGRHCGYVLQPSTMRDEAFDPFDKSSLRGLEPCAISIEVLGARHLPKNGRGIVCPFVEIEVAGAEYDSTKQKTEFVVDNGLNPVWPAKPFHFQISNPEFAFLRFVVYEEDMFSDQNFLAQATFPVKGLKTGYRAVPLKNNYSEDLELASLLIKIDIFPAK

Kd [3]: 0.185 µM
dH [3]: -7.09 kcal/mol
stoichiometry N [3]: 1.03
dH, first binding event [4]: -6.5 ± 0.183 kcal/mol
dH, second binding event [4]: 7.12 ± 0.23 kcal/mol
dH, first binding event [5]: -8.307 ± 0.025 kcal/mol
dH, second binding event [5]: 37.7 ± 5.13 kcal/mol
B2: FGFR1-1p kinase domain (pY766) (domain or fragment, UniProt P11362 458-774, looked up)
chain: AGVSEYELPEDPRWELPRDRLVLGKPLGEGCFGQVVLAEAIGLDKDKPNRVTKVAVKMLKSDATEKDLSDLISEMEMMKMIGKHKNIINLLGACTQDGPLYVIVEYASKGNLREYLQARRPPGLEYCYNPSHNPEEQLSSKDLVSCAYQVARGMEYLASKKCIHRDLAARNVLVTEDNVMKIADFGLARDIHHIDYYKKTTNGRLPVKWMAPEALFDRIYTHQSDVWSFGVLLWEIFTLGGSPYPGVPVEELFKLLKEGHRMDKPSNCTNELYMMMRDCWHAVPSQRPTFKQLVEDLDRIVALTSNQEYLDLSMPLD
modifications: phosphotyrosine at 766
notes: fibroblast growth factor receptor 1 (FGFR1), kinase domain with the C-terminal tail holding pY766; see the Supplemental Experimental Procedures
